Data as given in US20180298070A1, “PEPTIDE COMPOUND” (Takeda Pharmaceutical Company Limited, published 2018).
Starred links: 1 amine or outer side, 2 acyl side, 3 side chain; linkers in the order of their positions; H or OH if unused. Non-standard residues stand in square brackets, D forms with d. Groups on a side chain read outwards from the residue. Primed or numbered codes have the meaning given here. No end group written: not given here. *: point of attachment. C20 diacid = O=C(O)CCCCCCCCCCCCCCCCCCC(=O)*; γGlu = O=C(O)[C@H](CCC(=O)[*:2])N[*:1]; NMeY = CN[C@@H](Cc1ccc(O)cc1)C(=O)O; αMeF = C[C@](N)(Cc1ccccc1)C(=O)O; Lauroyl = CCCCCCCCCCCC(=O)*; dIva = CC[C@@](C)(N)C(=O)O; Iva = CC[C@](C)(N)C(=O)O; PEG2′ = not defined here; PEG3′ = not defined here; Aib = CC(C)(N)C(=O)O

T1: human GIPR (human), P48546
T1 chain: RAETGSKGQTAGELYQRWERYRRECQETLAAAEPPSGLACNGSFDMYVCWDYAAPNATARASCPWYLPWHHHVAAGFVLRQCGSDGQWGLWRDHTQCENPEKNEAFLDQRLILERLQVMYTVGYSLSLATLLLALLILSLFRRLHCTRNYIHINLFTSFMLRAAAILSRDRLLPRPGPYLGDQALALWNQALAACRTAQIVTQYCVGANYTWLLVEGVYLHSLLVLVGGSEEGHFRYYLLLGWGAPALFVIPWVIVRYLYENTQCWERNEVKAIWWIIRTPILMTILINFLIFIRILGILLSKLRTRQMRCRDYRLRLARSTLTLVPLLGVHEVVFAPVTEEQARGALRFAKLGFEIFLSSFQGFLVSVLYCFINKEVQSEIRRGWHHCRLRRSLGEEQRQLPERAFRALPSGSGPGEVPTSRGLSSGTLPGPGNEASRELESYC

T2: human GLP-1R (human), P43220
T2 chain: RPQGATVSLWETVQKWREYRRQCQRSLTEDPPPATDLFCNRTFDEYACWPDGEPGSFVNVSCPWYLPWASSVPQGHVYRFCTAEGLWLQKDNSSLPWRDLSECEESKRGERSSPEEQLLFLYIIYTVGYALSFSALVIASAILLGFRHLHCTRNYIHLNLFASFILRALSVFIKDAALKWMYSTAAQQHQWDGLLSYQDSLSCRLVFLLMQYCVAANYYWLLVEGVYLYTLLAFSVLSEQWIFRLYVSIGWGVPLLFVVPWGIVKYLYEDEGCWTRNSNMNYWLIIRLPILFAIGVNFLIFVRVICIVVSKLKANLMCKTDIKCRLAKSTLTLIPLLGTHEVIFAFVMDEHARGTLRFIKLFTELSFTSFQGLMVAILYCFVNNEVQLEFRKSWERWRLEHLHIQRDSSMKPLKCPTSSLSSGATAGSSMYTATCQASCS


Tests used:
[1] = biological target: T1, human GIPR (human), P48546; test: [125I]GIP displacement, hGIPR VLP
[2] = biological target: T2, human GLP-1R (human), P43220
[3] = biological target: T1, human GIPR (human), P48546
human GLP-1R = human GLP-1R (human, UniProt P43220); test: cell-based or functional assay

Binder | IC50 [1] | Agonist activity (EC50, M) [2] | Agonist activity (EC50, M) [3] | Agonist activity (EC50, M) (human GLP-1R)
[NMeY][Aib]EGTFISDYSI[dIva]LDRIAQ[Aib]NFVNW[Iva]LAQRPSSGAPPPSR (ends and bridges not checked) [Compound 92] | 2.3 nM | > 1e-06 M | 1.3e-12 M | –
Y[Aib]EGTFISDYSK([PEG(2)-Lauroyl])ALDR[Aib]AQQDFVNWLLAQRPSSGAPPPS (ends and bridges not checked) [Compound 205] | 1.6 nM | 2.9e-08 M | 3.4e-12 M | –
Y[Aib]EGTFISDYSIALDRK([PEG3′-PEG3′-γGlu-C20 diacid])HQQDFVNWLLAQRPSSGAPPPS (not fully specified (C-terminus); ends and bridges not checked) [Compound 237] | 110 nM | > 1e-06 M | 1.6e-10 M | –
YXEGTXISDYSIXXDRXAQXNFVNWXLAQRPSSGAPPPS (N-terminal acetyl (Ac-Tyr); Aib at 2, 13, 17, 20; Iva at 6, 26; Lys(Eda-GGGGG-) at 14; C-terminal NH2) [Compound 435] | – | – | – | > 1e-06 M
YXEGTXISDYSIXXDRXAQXNFVNWXLAQRPSSGAPPPS (not fully specified; N-methyl on Tyr1 (MeTyr); Aib at 2, 13, 17, 20; Iva at 6, 26; Lys(Oda-GGGGG-) at 14; C-terminal OH) [Compound 441] | – | – | – | > 1e-06 M
YXEGTXISDYSIXXDRXHQXNFVNWXLAQRPSSGAPPPS (N-methyl on Tyr1 (Me-Tyr); Aib at 2, 13, 17, 20; Iva at 6, 26; Lys(Eda-GGGGG-) at 14; C-terminal NH2) [Compound 475] | – | – | – | > 1e-06 M
YXEGTXISDYSIXXDRXAQXNFVNWXLAQRPSSGAPPPS (N-methyl on Tyr1 (Me-Tyr); Aib at 2, 13, 17, 20; Iva at 6, 26; Lys(Hepda-GGGGG-) at 14; C-terminal NH2) [Compound 465] | – | – | – | > 1e-06 M
YXEGTXISDYSIXXDRXHQXNFVNWXLAQRPSSGAPPPS (N-methyl on Tyr1 (Me-Tyr); Aib at 2, 13, 17, 20; Iva at 6, 26; Lys(Oda-GGGGGG-) at 14; C-terminal NH2) [Compound 484] | – | – | – | > 1e-06 M
YXEGTXISDYSIXXDRXAQXNFVNWXLAQRPSSGAPPPS (N-methyl on Tyr1 (Me-Tyr); Aib at 2, 13, 17, 20; Iva at 6, 26; Lys(Heda-GGGGGG-) at 14; C-terminal NH2) [Compound 457] | – | – | – | > 1e-06 M
YXEGTXISDYSIXLDRXHQXNFVNWXLAQRPSSGAPPPS (N-methyl on Tyr1 (Me-Tyr); Aib at 2, 13, 20; Iva at 6, 26; Lys(Oda-GGGGG-) at 17; C-terminal NH2) [Compound 491] | – | – | – | > 1e-06 M
YXEGTXISDYSIXXDRXAQXNFVNWXLAQRPSSGAPPPS (N-methyl on Tyr1 (Me-Tyr); Aib at 2, 13, 17, 20; Iva at 6, 26; Lys(Hda-GGGGG-) at 14; C-terminal NH2) [Compound 459] | – | – | – | > 1e-06 M
YXEGTXISDYSIXXDRXAQXNFVNWXLAQRPSSGAPPPS (N-methyl on Tyr1 (Me-Tyr); Aib at 2, 13, 17, 20; Iva at 6, 26; Lys(Hepda-GGGGGG-) at 14; C-terminal NH2) [Compound 466] | – | – | – | > 1e-06 M
YXEGTXISDYSIXXDRXAQXNFVNWXLAQRPSSGAPPPS (N-methyl on Tyr1 (Me-Tyr); Aib at 2, 13, 17, 20; Iva at 6, 26; Lys(Oda-GGGGGG-) at 14; C-terminal NH2) [Compound 439] | – | – | – | > 1e-06 M
YXEGTXISDYSIXXDRXAQXNFVNWXLAQRPSSGAPPPS (N-methyl on Tyr1 (Me-Tyr); Aib at 2, 13, 17, 20; Iva at 6, 26; Lys(Heda-GGGGG-) at 14; C-terminal NH2) [Compound 445] | – | – | – | > 1e-06 M
[NMeY][Aib]EGTFISDYSI[dIva]LDR[Aib]AQQDFVNWLLAQRPSSGAPPPSR (ends and bridges not checked) [Compound 79] | 1.2 nM | > 1e-06 M | 1.1e-12 M | –
[NMeY][Aib]EGTFISDYSIALDRIAQ[Aib]NFVNW[Iva]LAQRPSSGAPPPSR (not fully specified (C-terminus); ends and bridges not checked) [Compound 68] | 2.4 nM | 3.5e-07 M | 1.7e-12 M | –

Binder | IC50 [1] | Agonist activity (EC50, M) [2] | Agonist activity (EC50, M) [3] | Agonist activity (EC50, M) (human GLP-1R)
Y[Aib]EGTFISDYSK([PEG2′-Lauroyl])ALDR[Aib]HQ[Aib]NFVNW[Iva]LAQRPSSGAPPPS (not fully specified (C-terminus); ends and bridges not checked) [Compound 215] | 2.8 nM | 1.5e-07 M | 2.8e-12 M | –
Y[Aib]EGTFISDYSIALDRK([PEG(2)-Pal])HQ[Aib]NFVNW[Iva]LAQRPSSGAPPPS (not fully specified (C-terminus); ends and bridges not checked) [Compound 240] | 2.4 nM | 5.8e-09 M | 3e-12 M | –
Y[Aib]EGTFISDYSK([PEG2′-Lauroyl])ALDRIAQQS[αMeF]VNW[Iva]LAQRPSSGAPPPS (not fully specified (C-terminus); ends and bridges not checked) [Compound 221] | 3 nM | > 1e-06 M | 7.1e-12 M | –
[NMeY][Aib]EGTFISDYSIALDRIAQ[Aib]N[αMeF]VNWLLAQRPSSGAPPPSR (not fully specified (C-terminus); ends and bridges not checked) [Compound 72] | 2.7 nM | 2.3e-07 M | 2.6e-12 M | –
Y[Aib]EGTFISDYSIALDRK([PEG(2)-C20 diacid])HQQDFVNWLLAQRPSSGAPPPS (not fully specified (C-terminus); ends and bridges not checked) [Compound 234] | 82 nM | > 1e-06 M | 1.5e-10 M | –
Y[Aib]EGTFISDYSK([PEG2′-Lauroyl])ALDRIAQQSFVNW[Iva]LAQRPSSGAPPPS (not fully specified (C-terminus); ends and bridges not checked) [Compound 220] | 2.9 nM | 9.9e-08 M | 5.3e-12 M | –
YXEGTXISDYSIXXDRXAQXNFVNWXLAQRPSSGAPPPSR (N-methyl on Tyr1 (Me-Tyr); Aib at 2, 13, 17, 20; Iva at 6, 26; Lys(Eda-GGGGG-) at 14; C-terminal NH2) [Compound 473] | – | – | – | > 1e-06 M
YXEGTXISDYSIXXDRXAQXNFVNWXLAQRPSSGAPPPSR (N-methyl on Tyr1 (Me-Tyr); Aib at 2, 13, 17, 20; Iva at 6, 26; Lys(Oda-GGGGGG-) at 14; C-terminal NH2) [Compound 479] | – | – | – | > 1e-06 M
Y[Aib]EGTFISDYSK([PEG3′-PEG3′-γGlu-C20 diacid])ALDRIHQQDFVNWLLAQRPSSGAPPPS (not fully specified (C-terminus); ends and bridges not checked) [Compound 238] | 43 nM | > 1e-06 M | 8.3e-11 M | –
Y[Aib]EGTFISDYSK([PEG(2)-Lauroyl])ALDRIAQ[Aib]NFVNWLLAQRPSSGAPPPS (ends and bridges not checked) [Compound 204] | 2.6 nM | 9.5e-09 M | 8.1e-12 M | –
YXEGTXISDYSIXXDRXAQXNFVNWXLAQR (N-methyl on Tyr1 (MeTyr); Aib at 2, 13, 17, 20; Iva at 6, 26; Lys(Oda-GGGGG-) at 14; C-terminal NH2) [Compound 415] | – | – | – | > 1e-06 M
Y[Aib]EGTFISDYSK([PEG(2)-Lauroyl])ALDRIHQQSFVNW[Iva]LAQRPSSGAPPPS (not fully specified (C-terminus); ends and bridges not checked) [Compound 222] | 2.9 nM | > 1e-06 M | 3.7e-12 M | –
Y[Aib]EGTFISDYSK([PEG(2)-Lauroyl])ALDRIHQQS[αMeF]VNW[Iva]LAQRPSSGAPPPS (not fully specified (C-terminus); ends and bridges not checked) [Compound 223] | 3 nM | > 1e-06 M | 5.1e-12 M | –
Y[Aib]EGTFISDYSIALDRK([PEG(2)-dodec])HQQDFVNWLLAQRPSSGAPPPS (not fully specified (C-terminus); ends and bridges not checked) [Compound 232] | 2.1 nM | > 1e-06 M | 3.2e-12 M | –
[NMeY][Aib]EGTFISDYSIALDRIAQQS[αMeF]VNWLLAQRPSSGAPPPSR (not fully specified (C-terminus); ends and bridges not checked) [Compound 71] | 2.1 nM | > 1e-06 M | 2.5e-12 M | –
